{"source": "paper PMC4610412", "about": "(2016)", "key": {"trans-locked inhibitor": {"biological_target": "T1, trans-locked inhibitor (also: trans-locked alkene isostere, place not given here)", "T1 chain": "FF[pS]PR", "assay": "NMR titration"}, "cis-locked inhibitor": {"biological_target": "T2, cis-locked inhibitor (also: cis-locked alkene isostere, place not given here)", "T2 chain": "FF[pS]PR", "assay": "NMR titration"}, "pCdc25C": {"biological_target": "T3, pCdc25C (Homo sapiens)", "T3 chain": "EQPL[pT]PVTDL", "assay": "ITC"}}, "note": "Where no end group is shown, it is not given here. [ ]: non-standard residue; d: D form. pT = C[C@@H](OP(=O)(O)O)[C@H](N)C(=O)O; pS = N[C@@H](COP(=O)(O)O)C(=O)O"}
{"binder": "Pin1 PPIase domain (isolated) PPIase (protein) PARVRCSHLLVKHSQSRRPSSWRQEKITRTKEEALELINGYIQKIKSGEEDFESLASQFSDCSSAKARGDLGAFSRGQMQKPFEDASFALRTGEMSGPVFTDSGIHIILRTE", "values": [{"measurement": "Kd", "setting": "trans-locked inhibitor", "result": 66, "unit": "µM"}, {"measurement": "Kd", "setting": "cis-locked inhibitor", "result": 7, "unit": "µM"}, {"measurement": "Kd", "setting": "pCdc25C", "result": "> 1000", "unit": "µM"}]}
